In this experiment the target is V2E FP_HM (HIV gp41 ectodomain construct FP_HM with the V2E mutation) (HIV (HXB2 laboratory strain)). As to the kind of experiment: SEC. In general terms: In gel filtration, larger molecules generally elute earlier.

Where “and” joins values, the source holds several entries; their conditions need not be identical. Equal values may be shown once.

In general, stoichiometry N refers to a count of units in the complex or per binding partner. For the substance “V2E FP_HM (HIV gp41 ectodomain construct FP_HM with the V2E mutation) (domain or fragment)”, the stoichiometry N was 3 and 6.

(Values after PMC9879285.)
